Assay results published in publication PMC9714555, “Hemocyte response to treatment of susceptible and resistant Asian corn borer (Ostrinia furnacalis) larvae with Cry1F toxin from Bacillus thuringiensis” (Frontiers in Immunology, 2022).

B1: hemolymph lipopolysaccharide-binding protein (LBP), His tag removed (natural protein)
chain: QKRYRNDYVYDANTDAFYKFHVNMAVHWRALTICKLEGATLMVPTSVQQIAQVHGMFKQYPDIGHYVWIGDDNADHESAEETPIIDLQPEVETEAPWERRCLVLTRRGEIQTQNCRYYQSFVCMVEAKNAPYDHRCDVYAAGYEYNTDVKSCYKIPRDIKTWNAAYAECQAHGAHLVVVNSVTERDVLQALMSRTPYLRTSFSPYHYIAGIRATSVIGSEVVYRTIFNETLEEAGFSEWADNEPNNQQGIEYCGSLHQRSGKYNDISCLSSFGYICEKERNE
modifications: Wild-type trypsin-activated core; the text prints neither the Cry1F subtype nor the limits. Cry1Fa assumed, with the conventional tryptic core 28-612.
B2: CD63 antigen-like (CD63) tetraspanin, His tag removed (natural protein)
chain: KGNAEALVQKQLYETMQLYTHDVVVTRLWDEVQEDFSCCGVNNASDWLAPLGTANTDQGLPLSCCQFPFGTITVFNCTMATPAPTLRTEGCSTAFGAWVQSHAGS
modifications: Wild-type trypsin-activated core; the text prints neither the Cry1F subtype nor the limits. Cry1Fa assumed, with the conventional tryptic core 28-612.
B3: C-type mannose receptor 2-like (C-MR2), His tag removed (natural protein)
chain: SELNTSKSNWFRPDYSYSERTGGWFKFHSVPATWEDARLQCYYEGAELVSPFNENIIQKMIMLMDVNEPYIFTGIHSTFSKGVYTSVGGVPLHEMPVSLHSRDVSGNCVTMRSNGRVEARNCSSQYPYICFKKGPEHLTSSVCGADQEYKYEQRTGSCYKFHTLGRTWPQAFRVCVAEGGHLAIINSDVEADVIRGIFQNYPDDAFKADAKYAASIGFQGWGAVKIWWTIHGQTLQDAGYSKWDKFVPDMRSTRHYCGAVGRNGTLSHIECEGVTFPAICEKKADLV
modifications: Wild-type trypsin-activated core; the text prints neither the Cry1F subtype nor the limits. Cry1Fa assumed, with the conventional tryptic core 28-612.
B4: C-type lectin lectoxin-Phi1-like (C-lectoxin), His tag removed (natural protein)
chain: DVPKDYIVNPNDSHGYKLMYHAKTWTEARDDCANVGAKLAVPKTRDQFEFIQKIVRSMQYQSIVGTEYKLLVWLGISNLKNYQVWANVDGENIEDTEFHTWAGQNGLKSENPAEPHCVGMDSMNFGLRDWWCHQRQPYICEILTVQNATQ
modifications: Wild-type trypsin-activated core; the text prints neither the Cry1F subtype nor the limits. Cry1Fa assumed, with the conventional tryptic core 28-612.

target: Trypsin-activated Cry1F toxin from Bacillus thuringiensis (Bacillus thuringiensis, UniProt Q03746 1-1174); test: SPR; Biacore 8K; activated Cry1F immobilised on a CM5 chip (10 mM sodium acetate pH 4.0); analytes without His tag in 10 mM HEPES, 150 mM NaCl, 3 mM EDTA, 0.005% Tween-20, pH 7.4; 30 uL/min, association 120 s, dissociation 280 s; 1:1 binding model; details: both partners purified
Sequence (Q03746 28-612 limits assumed): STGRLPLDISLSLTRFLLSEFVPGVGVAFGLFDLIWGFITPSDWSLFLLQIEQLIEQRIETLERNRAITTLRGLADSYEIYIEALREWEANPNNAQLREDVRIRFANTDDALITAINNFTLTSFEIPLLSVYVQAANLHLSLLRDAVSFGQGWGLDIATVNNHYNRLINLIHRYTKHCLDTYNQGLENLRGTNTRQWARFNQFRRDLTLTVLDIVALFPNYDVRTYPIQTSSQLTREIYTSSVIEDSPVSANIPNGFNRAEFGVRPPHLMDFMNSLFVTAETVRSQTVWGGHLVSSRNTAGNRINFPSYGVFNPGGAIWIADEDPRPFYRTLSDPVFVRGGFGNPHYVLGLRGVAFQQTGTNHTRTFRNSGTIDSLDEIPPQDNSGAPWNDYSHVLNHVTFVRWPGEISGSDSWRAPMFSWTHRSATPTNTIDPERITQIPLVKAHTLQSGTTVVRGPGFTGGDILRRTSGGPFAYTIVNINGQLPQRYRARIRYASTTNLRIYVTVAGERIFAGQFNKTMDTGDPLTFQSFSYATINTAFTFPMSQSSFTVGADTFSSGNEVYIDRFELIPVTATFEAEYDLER

Compared with B1, B2 is 2.5-fold higher in Kd: 119 nM for the first, 294 nM for the second.

First: B3
Second: B4
The Kd of the first is 2.1-fold lower: 22.1 nM for the first, 46.6 nM for the second.

First: B1
Second: B2
The koff of the first is 1.6-fold lower: 0.00294 s⁻¹ for the first, 0.00474 s⁻¹ for the second.

B3 and B4 are within 1.5-fold of each other in koff: 0.0041 s⁻¹ for the first, 0.00513 s⁻¹ for the second.

Going from B1 to B2, the kon falls from 24700 M⁻¹ s⁻¹ to 16100 M⁻¹ s⁻¹ (1.5-fold).

Compared with B3, B4 is 1.7-fold lower in kon: 185000 M⁻¹ s⁻¹ for the first, 110000 M⁻¹ s⁻¹ for the second.
